Four molecules from patent US20240116985A1 (published 2024) can be followed below.

Starred links: 1 amine or outer side, 2 acyl side, 3 side chain; linkers in the order of their positions; H or OH if unused. Positions of bridges follow the written chain, without caps; N, C: chain ends. Non-standard residues stand in square brackets, D forms with d. Primed or numbered codes have the meaning given here. *: point of attachment. PyrS2″ = (S)-3-amino-1-((pent-4-en-1-yloxy)carbonyl)pyrrolidine-3-carboxylic acid (stapling residue), C=CCCCOC(=O)N1CC[C@@](N[*:1])(C(=O)[*:2])C1; B5(16) = 2-amino-2-(pent-4-en-1-yl)hept-6-enoic acid = 2,2-bis(4-pentenyl)glycine (stitching residue), C=CCCCC(CCCC=C)(N[*:1])C(=O)[*:2]; B5(5) = 2,2-bis(4-pentenyl)glycine, 2-amino-2-(pent-4-en-1-yl)hept-6-enoic acid (stitching residue), C=CCCCC(CCCC=C)(N[*:1])C(=O)[*:2]; B5(6) = 2-amino-2-(pent-4-en-1-yl)hept-6-enoic acid (bis(4-pentenyl)glycine), stitching residue, C=CCCCC(CCCC=C)(N[*:1])C(=O)[*:2]; PyrS2 = (S)-3-amino-1-((pent-4-en-1-yloxy)carbonyl)pyrrolidine-3-carboxylic acid, C=CCCCOC(=O)N1CC[C@@](N[*:1])(C(=O)[*:2])C1; B5 = 2-amino-2-(pent-4-en-1-yl)hept-6-enoic acid, C=CCCCC(CCCC=C)(N[*:1])C(=O)[*:2]; Phe(3-CF3) = N[C@@H](Cc1cccc(C(F)(F)F)c1)C(=O)O; Phe(3-OMe) = COc1cccc(C[C@H](N)C(=O)O)c1; Bta = N[C@@H](Cc1csc2ccccc12)C(=O)O; αAllylPro = C=CC[C@@]1(C(=O)O)CCCN1; tBuAla = CC(C)(C)C[C@H](N)C(=O)O; S8 = C=CCCCCCC[C@](C)(N)C(=O)O; iPr = CC(C)*

The target in assay [1] is T1, full-length beta-Catenin (Uniprot ID P35222) (Homo sapiens (Human), UniProt P35222 2-781).
T1 construct: The FP assay uses 10 nM 'full-length beta-Catenin (Uniprot ID P35222)'; also called bCat; B-Catenin
T1 sequence: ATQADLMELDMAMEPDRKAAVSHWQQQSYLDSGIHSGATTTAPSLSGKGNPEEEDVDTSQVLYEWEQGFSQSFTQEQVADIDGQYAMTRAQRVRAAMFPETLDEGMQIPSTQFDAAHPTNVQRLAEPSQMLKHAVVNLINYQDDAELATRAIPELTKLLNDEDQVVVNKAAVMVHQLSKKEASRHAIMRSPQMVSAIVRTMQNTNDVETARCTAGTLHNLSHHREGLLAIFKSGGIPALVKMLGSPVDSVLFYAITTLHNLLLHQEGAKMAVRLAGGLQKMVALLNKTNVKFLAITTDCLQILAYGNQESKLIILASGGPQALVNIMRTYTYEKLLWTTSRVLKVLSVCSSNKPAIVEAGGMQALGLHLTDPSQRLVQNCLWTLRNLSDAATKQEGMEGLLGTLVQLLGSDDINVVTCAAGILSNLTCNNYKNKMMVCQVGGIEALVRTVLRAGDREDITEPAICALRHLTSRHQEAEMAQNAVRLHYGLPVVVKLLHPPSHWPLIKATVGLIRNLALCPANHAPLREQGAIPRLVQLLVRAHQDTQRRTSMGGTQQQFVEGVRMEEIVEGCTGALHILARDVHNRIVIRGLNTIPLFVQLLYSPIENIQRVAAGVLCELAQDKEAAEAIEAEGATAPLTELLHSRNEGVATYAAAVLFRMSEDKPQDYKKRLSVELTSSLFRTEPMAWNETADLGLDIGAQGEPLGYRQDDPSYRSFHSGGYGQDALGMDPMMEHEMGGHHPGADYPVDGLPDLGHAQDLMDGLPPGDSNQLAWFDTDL
The experiment in a line: fluorescence polarization competition; 10 nM full-length beta-catenin, 10 nM 5FAM-TCF4(10-53) probe. Here is the method:
(§1) The plate was incubated protected from light for 60 minutes at 20° C. prior to read. Reads were performed on a CLARIOstar plate reader (BMG Labtech) in duplicate, and data were fitted to a 1:1 binding model with hill slope using an in-house script. All provided concentrations are final concentrations.

In assay [2] the target is T2, full-length beta-Catenin (Uniprot ID P35222) (Homo sapiens (Human), UniProt P35222 1-781).
T2 construct: also called bCat; B-Catenin
T2 sequence: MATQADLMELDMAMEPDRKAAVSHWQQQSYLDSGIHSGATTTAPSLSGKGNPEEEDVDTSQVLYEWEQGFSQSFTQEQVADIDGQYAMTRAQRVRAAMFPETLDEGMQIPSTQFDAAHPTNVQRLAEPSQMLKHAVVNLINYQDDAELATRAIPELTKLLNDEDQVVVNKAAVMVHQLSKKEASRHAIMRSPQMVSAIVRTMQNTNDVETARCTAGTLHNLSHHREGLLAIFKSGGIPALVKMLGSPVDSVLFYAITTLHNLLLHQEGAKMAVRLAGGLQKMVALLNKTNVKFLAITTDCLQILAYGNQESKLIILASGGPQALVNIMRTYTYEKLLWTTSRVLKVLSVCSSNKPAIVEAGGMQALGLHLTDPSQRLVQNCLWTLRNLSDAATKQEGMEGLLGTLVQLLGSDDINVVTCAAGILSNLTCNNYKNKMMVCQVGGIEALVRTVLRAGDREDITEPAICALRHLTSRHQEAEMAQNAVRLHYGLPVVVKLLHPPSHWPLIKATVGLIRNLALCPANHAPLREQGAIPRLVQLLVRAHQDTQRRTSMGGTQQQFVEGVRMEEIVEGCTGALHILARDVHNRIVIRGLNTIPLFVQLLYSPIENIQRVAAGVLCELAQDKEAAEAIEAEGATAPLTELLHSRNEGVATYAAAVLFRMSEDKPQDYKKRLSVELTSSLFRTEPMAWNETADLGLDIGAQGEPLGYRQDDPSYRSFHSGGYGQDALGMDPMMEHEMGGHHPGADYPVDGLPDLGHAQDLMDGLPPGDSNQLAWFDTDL
The assay is described as follows: fluorescence polarization competition; full-length beta-catenin with 5FAM-labeled TCF4 residues 10-53 probe as competitor. In a few lines:
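Fluorescence polarization was read in duplicate after the plate sat 60 minutes at 20° C. shielded from light. Values come from fitting to a 1:1 binding model with hill slope.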

Assay [3] addresses B-cat-Halo (beta-catenin HaloTag fusion expressed in HEK293 cells) (UniProt P35222 1-781). The experiment in a line: NanoBRET Abs IC50 in HEK293 cells; Bcat-Halo / TCF4-Luc engagement, competitor TCF4-Luc. Background: BRET reads energy transfer from a luciferase to a nearby fluorophore.
For assay [4], the target named is T3, beta-catenin in DLD1 TCF/LEF luciferase reporter cells (Homo sapiens (Human), UniProt P35222 1-781).
T3 sequence: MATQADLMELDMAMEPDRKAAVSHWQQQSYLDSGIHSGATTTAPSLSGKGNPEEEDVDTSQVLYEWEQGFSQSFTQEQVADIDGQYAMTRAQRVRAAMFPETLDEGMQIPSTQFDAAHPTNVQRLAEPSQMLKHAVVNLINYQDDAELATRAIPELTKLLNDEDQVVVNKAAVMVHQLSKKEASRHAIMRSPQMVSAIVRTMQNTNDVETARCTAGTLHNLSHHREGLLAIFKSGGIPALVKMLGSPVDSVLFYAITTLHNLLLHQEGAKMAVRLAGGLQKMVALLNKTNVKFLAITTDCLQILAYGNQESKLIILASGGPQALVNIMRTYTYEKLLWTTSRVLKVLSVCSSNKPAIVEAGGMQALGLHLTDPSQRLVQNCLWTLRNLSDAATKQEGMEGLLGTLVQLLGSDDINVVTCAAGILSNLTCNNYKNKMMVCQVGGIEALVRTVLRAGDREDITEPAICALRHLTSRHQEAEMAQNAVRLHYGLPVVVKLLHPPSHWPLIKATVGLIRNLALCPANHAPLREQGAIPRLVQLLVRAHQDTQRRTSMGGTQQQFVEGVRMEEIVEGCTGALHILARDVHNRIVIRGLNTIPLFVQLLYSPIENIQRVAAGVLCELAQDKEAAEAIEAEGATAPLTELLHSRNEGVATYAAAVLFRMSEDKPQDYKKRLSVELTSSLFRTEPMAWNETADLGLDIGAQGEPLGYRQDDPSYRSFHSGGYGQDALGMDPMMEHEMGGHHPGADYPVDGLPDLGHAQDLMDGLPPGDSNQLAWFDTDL
The experiment in a line: cell-based or functional assay.

In assay [5] the target is T4, B-cat-Halo (beta-catenin HaloTag NanoBRET construct expressed in HEK293 cells) (UniProt P35222 1-781).
T4 construct: Transfected together with TCF4-Luc into HEK293 cells; not shown: HaloTag
T4 sequence (looked up): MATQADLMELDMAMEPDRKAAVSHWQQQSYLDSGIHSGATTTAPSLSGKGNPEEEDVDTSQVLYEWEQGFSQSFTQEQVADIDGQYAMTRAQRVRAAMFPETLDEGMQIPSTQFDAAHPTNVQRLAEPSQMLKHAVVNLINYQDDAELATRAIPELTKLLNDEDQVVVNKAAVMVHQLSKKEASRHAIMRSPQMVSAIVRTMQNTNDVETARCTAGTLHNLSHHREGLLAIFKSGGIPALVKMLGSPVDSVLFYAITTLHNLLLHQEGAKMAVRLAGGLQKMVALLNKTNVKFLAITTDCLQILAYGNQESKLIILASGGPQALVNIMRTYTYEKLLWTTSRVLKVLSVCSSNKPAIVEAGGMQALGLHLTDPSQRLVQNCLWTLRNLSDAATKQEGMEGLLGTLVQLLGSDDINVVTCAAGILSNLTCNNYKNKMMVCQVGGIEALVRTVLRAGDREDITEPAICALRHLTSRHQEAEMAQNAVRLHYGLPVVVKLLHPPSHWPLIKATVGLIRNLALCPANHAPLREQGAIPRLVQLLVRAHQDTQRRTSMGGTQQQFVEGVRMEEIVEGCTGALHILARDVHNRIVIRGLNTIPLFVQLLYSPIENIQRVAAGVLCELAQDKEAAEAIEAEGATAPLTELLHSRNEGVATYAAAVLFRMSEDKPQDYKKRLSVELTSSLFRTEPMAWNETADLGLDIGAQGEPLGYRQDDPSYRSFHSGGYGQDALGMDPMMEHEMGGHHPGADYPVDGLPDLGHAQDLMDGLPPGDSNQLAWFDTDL
The assay is described as follows: NanoBRET target engagement in HEK293 cells (B-cat-Halo / TCF4-Luc); competitor TCF4-Luc.

Assay [6] has as its target T5, full-length beta-Catenin (Uniprot ID P35222) (Homo sapiens (Human), UniProt P35222 1-781).
T5 construct: also called bCat; B-Catenin
T5 sequence: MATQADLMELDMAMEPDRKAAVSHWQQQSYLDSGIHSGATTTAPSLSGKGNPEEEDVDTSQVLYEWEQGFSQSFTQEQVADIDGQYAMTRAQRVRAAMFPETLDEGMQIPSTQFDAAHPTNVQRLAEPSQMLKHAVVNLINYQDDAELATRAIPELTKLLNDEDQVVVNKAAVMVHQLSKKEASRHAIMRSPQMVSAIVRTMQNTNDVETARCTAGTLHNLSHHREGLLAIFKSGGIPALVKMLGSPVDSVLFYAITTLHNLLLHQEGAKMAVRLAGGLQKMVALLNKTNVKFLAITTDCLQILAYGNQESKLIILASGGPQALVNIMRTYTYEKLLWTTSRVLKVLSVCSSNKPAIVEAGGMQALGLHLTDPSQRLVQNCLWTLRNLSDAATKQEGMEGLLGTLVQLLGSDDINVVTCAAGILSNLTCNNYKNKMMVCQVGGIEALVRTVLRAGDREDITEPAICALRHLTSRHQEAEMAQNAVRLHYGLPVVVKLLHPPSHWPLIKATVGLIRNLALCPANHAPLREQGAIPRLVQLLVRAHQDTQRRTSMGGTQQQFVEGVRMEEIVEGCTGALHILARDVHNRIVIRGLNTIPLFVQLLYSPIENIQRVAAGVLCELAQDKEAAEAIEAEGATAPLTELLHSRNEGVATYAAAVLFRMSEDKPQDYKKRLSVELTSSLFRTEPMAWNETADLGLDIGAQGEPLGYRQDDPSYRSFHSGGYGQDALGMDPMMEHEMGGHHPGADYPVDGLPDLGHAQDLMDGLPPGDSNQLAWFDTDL
The assay is described as follows: fluorescence polarization competition; 10 nM full-length beta-catenin + 10 nM 5FAM-TCF4(10-53) probe. Here is the method: as §1

Assay [7] addresses T4, B-cat-Halo (beta-catenin HaloTag …). The experiment in a line: NanoBRET target engagement in HEK293 cells (B-cat-Halo / TCF4-Luc); absolute IC50; competitor TCF4-Luc.

B1: I-1647 (peptide)
peptide: Ac-[αAllylPro]NY[B5(16)]DQK(iPr)AFL[PyrS2]F[Bta]Q-NH2
modifications: staple 1-4, 4-11
notes: Stapled peptide; also called Ac-PL3-Asn-Tyr-B5-Asp-Gln-iPrLys-Ala-Phe-Leu-PyrS2-Phe-BztA-Gln-NH2
The term IC50 denotes the concentration that inhibits the measured activity by half. Read a low IC50 as greater potency in that assay. For B1, the 50% inhibitory concentration (IC50) in assay [1] amounted to 2.35 µM.

B2: I-724 (peptide)
peptide: Ac-[αAllylPro]DI[B5]DEAA[Phe(3-OMe)]Q[S8]F[Bta]Q-NH2
modifications: staple 1-4, 4-11
notes: Stapled peptide composition
One may read the EC50 as the concentration that produces a half-maximal response. For B2, a half-maximal response in assay [2] (EC50) required 0.114 µM.

B3: I-1268: Ac-PL3-Asp-Npg-B5-Asp-Thr-Ala-Ala-3F3MeF-Thr-PyrS2-Phe-BztA-Ser-NH2 (peptide)
peptide: Ac-[αAllylPro]D[tBuAla][B5(5)]DTAA[Phe(3-CF3)]T[PyrS2″]F[Bta]S-NH2
modifications: staple 1-4, 4-11
B3 displayed an IC50 in assay [3] of 28.4 µM.

B4: I-505 (peptide)
peptide: Ac-[αAllylPro]DL[B5(6)]DEAAFQ[S8]F[Bta]Q-NH2
modifications: staple 1-4, 4-11
notes: Stapled peptide composition; also called Ac-PL3-Asp-Leu-B5-Asp-Glu-Ala-Ala-Phe-Gln-S8-Phe-BztA-Gln-NH2
In the case of B4, in assay [4], the “DLD1 reporter assay Abs IC50” value was found to be 10.8 µM. Moreover, the half-inhibitory concentration (IC50) in assay [5] is 5.6 µM. The EC50 in assay [6] is 0.023 µM. Moreover, the “NanoBRET Abs IC50” value in assay [7] was determined as 4.9 µM.
